We go through three molecules from patent US20210101970A1 (Pfizer, published 2021).

In experiment [1] the target is T1, human CXCR5 (human, UniProt P32302 1-372).
T1 construct: also called hCXCR5; C-X-C chemokine receptor type 5
T1 sequence: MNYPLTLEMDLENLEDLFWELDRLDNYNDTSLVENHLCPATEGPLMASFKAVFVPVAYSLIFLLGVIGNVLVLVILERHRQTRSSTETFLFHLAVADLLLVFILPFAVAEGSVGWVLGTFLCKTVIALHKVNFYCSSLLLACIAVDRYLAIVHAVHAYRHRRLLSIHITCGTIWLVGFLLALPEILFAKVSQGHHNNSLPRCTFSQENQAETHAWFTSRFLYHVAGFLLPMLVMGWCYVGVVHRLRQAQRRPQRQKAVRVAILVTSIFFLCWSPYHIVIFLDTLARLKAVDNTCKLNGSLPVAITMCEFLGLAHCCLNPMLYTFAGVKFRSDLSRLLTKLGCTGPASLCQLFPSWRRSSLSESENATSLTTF
Description: flow cytometry, human tonsil Tfh cells. As for the experimental part: Following centrifugation, red blood cell lysis was performed on the pellet using an ammonium chloride lysis buffer. Platelets were removed using a low speed centrifugation (200×g) for 10 minutes in Phosphate-Buffered Saline (PBS)/2% FBS/2 mM Ethylenediaminetetraacetic acid (EDTA). CD4+ T cells were purified out of the TMC mixture using an EasySep™ Human CD4+ T Cell Enrichment Kit, according to the manufacturer's instructions ([…] Technologies, Vancouver, BC, Canada).
Following isolation, PBMCs were plated at a density of 1.0×10⁵ cells per well and CD4+ TMCs were plated at a density of 2.0×10⁵ cells per well in isolation buffer (PBS containing 1% FBS and 1 mM EDTA) in 96 well U-bottom plates. The plates were then centrifuged at 1500 rpm for 5 minutes at room temperature. PBMCs and CD4+ TMCs were resuspended in Fluorescence-activated cell sorting (FACS) buffer (PBS containing 1% FBS) containing human crystallized fragment Fc block (2 μL per well; Biolegend) and 4-fold serial dilutions of the antibodies (11-point dilution series, beginning at 5000 ng/mL for PBMCs and 312.5 ng/mL for CD4+ TMCs) and incubated on ice for 2 hours. PBMCs and CD4+ TMCs were then washed with FACS buffer 3 times and resuspended in 50-100 μL of FACs buffer containing fluorescent-conjugated antibodies for staining lymphocyte subsets and a fluorescent-conjugated secondary antibody against human Ig to detect CXCR5 monoclonal antibodies (mAbs). After incubation for 30 minutes at 4° C., PBMCs and CD4+ TMCs were washed with FACS buffer 2 times and resuspended in 125 μL of 0.5% paraformaldehyde (PFA) in PBS. Plates were stored at 4° C. until analysis by flow cytometry (BD LSRFortessa™ Cell Analyzer, BD Biosciences, Franklin Lakes, N.J.).
The cell binding titration curves were generated by plotting the gMFI of the antigen binding population against the log of CXCR5 antibody concentration. EC₅₀ values were determined using GraphPad Prism® (version 6.0, GraphPad Software, Inc, San Diego, Calif.) nonlinear-regression curve fits and a sigmoidal log of agonist dose-response model, according to the following equation

Experiment [2] concerns the target T1, human CXCR5. Description: cell-based or functional assay.
Experiment [3] addresses T1, human CXCR5. Description: flow cytometry, human PBMC B cells. Background: Flow cytometry measures light scatter and fluorescence of single cells or particles in a stream.
In the next experiment the target is T2, mouse CXCR5 (mouse, UniProt Q04683 1-374).
T2 construct: also called mCXCR5
T2 sequence: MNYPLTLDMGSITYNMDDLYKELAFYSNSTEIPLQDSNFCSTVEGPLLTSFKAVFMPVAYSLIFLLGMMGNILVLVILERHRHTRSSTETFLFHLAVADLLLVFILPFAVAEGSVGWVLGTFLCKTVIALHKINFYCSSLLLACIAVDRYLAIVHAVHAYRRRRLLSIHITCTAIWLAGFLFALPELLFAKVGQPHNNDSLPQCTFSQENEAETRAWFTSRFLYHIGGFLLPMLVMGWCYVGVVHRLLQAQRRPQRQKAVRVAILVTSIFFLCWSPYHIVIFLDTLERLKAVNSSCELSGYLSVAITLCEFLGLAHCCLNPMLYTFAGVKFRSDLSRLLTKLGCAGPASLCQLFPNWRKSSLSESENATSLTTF
Description: flow cytometry on cells expressing mouse CXCR5.

The next experiment addresses T3, cynomolgus monkey CXCR5 (cynomolgus monkey, UniProt P32302 1-372 (human entry)).
T3 construct: also called cynoCXCR5; NHP CXCR5
T3 chain: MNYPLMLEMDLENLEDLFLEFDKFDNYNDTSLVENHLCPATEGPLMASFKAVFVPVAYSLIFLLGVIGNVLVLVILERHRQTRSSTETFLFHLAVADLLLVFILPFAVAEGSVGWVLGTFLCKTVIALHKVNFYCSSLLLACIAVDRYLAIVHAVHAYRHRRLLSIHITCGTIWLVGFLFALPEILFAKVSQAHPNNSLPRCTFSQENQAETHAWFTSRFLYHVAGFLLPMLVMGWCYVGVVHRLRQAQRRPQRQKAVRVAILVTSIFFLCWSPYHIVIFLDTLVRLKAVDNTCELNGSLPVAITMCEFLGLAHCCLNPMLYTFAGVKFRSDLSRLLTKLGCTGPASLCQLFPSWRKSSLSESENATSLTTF
Description: flow cytometry, cynomolgus PBMC Tfh-like cells. The protocol:
The apparent affinity for cell surface CXCR5 of chimeric and humanized CXCR5 fucosylated and afucosylated antibodies was assessed. More specifically, to determine the apparent affinity of chimeric and humanized CXCR5 antibodies to CXCR5-expressing cells, cell binding experiments were performed on human and cynomolgus monkey peripheral blood mononuclear cells (PBMCs) and human tonsillar mononuclear cells (TMCs). The apparent affinity of CXCR5 mab binding to CXCR5+ cells (B cells, bona fide Tfh cells, and circulating Tfh-like cells) was calculated as the EC50 of equilibrium binding titration curves in which the geometric mean fluorescence intensity (gMFI) of the antigen binding population was quantified by flow cytometry.
Following isolation, PBMCs were plated at a density of 1.0×10⁵ cells per well and CD4+ TMCs were plated at a density of 2.0×10⁵ cells per well in isolation buffer (PBS containing 1% FBS and 1 mM EDTA) in 96 well U-bottom plates. The plates were then centrifuged at 1500 rpm for 5 minutes at room temperature. PBMCs and CD4+ TMCs were resuspended in Fluorescence-activated cell sorting (FACS) buffer (PBS containing 1% FBS) containing human crystallized fragment Fc block (2 μL per well; Biolegend) and 4-fold serial dilutions of the antibodies (11-point dilution series, beginning at 5000 ng/mL for PBMCs and 312.5 ng/mL for CD4+ TMCs) and incubated on ice for 2 hours. […]

Another experiment concerns the target T4, CXCR4 (human, UniProt P61073 1-352).
T4 construct: whole, on cells
Description: flow cytometry (GMFI) on Jurkat cells, which express CXCR4; chimeric antibody, goat anti-human PE. As for the experimental part:
To determine the specificity of the antibodies for CXCR5, the binding of the antibodies to cells expressing other […] was assessed. Briefly, FlowCellect chemokine receptor cell lines expressing CXCR1, CXCR2, or CXCR3 (EMD Millipore, Billerica, Mass.), and Jurkats (ATCC, Manassas, Va.), which express CXCR4, were stained with 5 μg/ml or 10 μg/ml of each anti-CXCR5 chimeric antibody. The cells were then incubated with goat anti-human conjugated with PE (Southern Biotech, Birmingham, Ala.) prior to analysis by flow cytometry using a FACSVerse Analyzer (BD Biosciences, Franklin Lakes, N.J.).

The target of experiment [4] is T1, human CXCR5. Description: cell-based or functional assay. The source holds these as a separate data set.

T4 sequence (P61073 whole entry): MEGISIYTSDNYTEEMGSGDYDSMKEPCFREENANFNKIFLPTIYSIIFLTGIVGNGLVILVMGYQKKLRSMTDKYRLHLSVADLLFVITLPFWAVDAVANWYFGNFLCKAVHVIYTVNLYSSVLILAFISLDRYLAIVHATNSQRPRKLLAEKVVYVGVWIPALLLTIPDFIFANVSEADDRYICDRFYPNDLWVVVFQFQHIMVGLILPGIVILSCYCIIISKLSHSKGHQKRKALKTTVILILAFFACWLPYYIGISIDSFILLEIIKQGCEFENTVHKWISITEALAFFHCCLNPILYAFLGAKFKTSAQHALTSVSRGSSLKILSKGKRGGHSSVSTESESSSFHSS

B1: Afucosyl humanized 11G2 154/155 (antibody, human IgG1, kappa, V domains shown)
VH: EVQLVESGGGLVQPGGSLRLSCAASGFTFTDFYMSWVRQAPGKGLEWVGFIRNKANGYTTEYSASVKGRFTISRDNAKNSLYLQMNSLRAEDTAVYYCARVYGSTLHYWGQGTLVTVSS
VL: DIQMTQSPSSLSASVGDRVTITCRASESVEYHGTSLMHWYQQKPGKAPKLLIYAASNVESGVPSRFSGSGSGTDFTLTISSLQPEDFATYYCQQSRKVPWTFGQGTKVEIKR
modifications: afucosylated Fc glycan (Asn297)
notes: also called afucosyl h11G2 XC154/XC155; afucosylated h11G2 VL XC154/VH XC155
On to B1, for which the values for the EC50 with human CXCR5 [1] and with cynomolgus monkey CXCR5 were 0.0106 nM and 0.0105 nM, respectively. In the experiment with human CXCR5 [2], the “EC50, functional antagonism (cAMP assay)” value was found to be 0.961 nM. Further, the “fold higher affinity than 2C9” value in the experiment with human CXCR5 [3] was about 10 fold. The “fold higher affinity than 11A7” value with human CXCR5 [3] is about 100 fold. Besides, the binding result with mouse CXCR5 is reported as “no binding”.

B2: Chimeric 11G2 (antibody, human IgG1, kappa, V domains shown)
VH: EVKLVESGGGLVQPGGSLRLSCATSGFTFTDFYMSWVRQPPGRALEWLGFIRNKANGYTTEYSASVKGRFTISRDNSQSILYLQMNTLRAGDSATYYCVRVYGSTLHYWGQGTILTVSS
VL: DVVVTQSPDSLAVSLGQRATISCRASESVEYHGTSLMHWYQQKPGQPPKLLIYAASNVESGVPARFSGSGSGTDFSLNIHPVEEGDIAMYFCQQSRKVPWTFGGGTKLEIKR
notes: mouse V regions on human IgG1/kappa; also called 11G2 (chimeric)
In the case of B2, in the experiment with human CXCR5 [1], the EC50 (in general, the concentration at which the effect is half-maximal) is 0.00846 nM. Also, the binding result with CXCR4 is reported as “no binding (tested: 5 or 10 µg/ml (not on the sheet))”.

B3: 2C9 (reference antibody) (antibody, human IgG1, kappa, V domains shown)
VH: EVQLVESGGGLVKPGGSLRLSCAASGFTFSTNAMNWVRQAPGKGLERVARIRSKSNNYATYYADSVKDRFTISRDDSKNTLYLQMNSLKTEDTAVYYCVTMIPFAYWGQGTLVTVSS
VL: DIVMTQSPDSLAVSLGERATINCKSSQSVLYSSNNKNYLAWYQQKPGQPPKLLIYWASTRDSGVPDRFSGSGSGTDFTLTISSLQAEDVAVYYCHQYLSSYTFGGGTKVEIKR
notes: fucosylated
For B3, in the experiment with human CXCR5 [4], the “% Inhibition CXCL13” value came out at 114% and the “EC50, stimulation of CXCL13-inhibited cAMP production” value was 0.793 nM. Besides, in the experiment with mouse CXCR5, the binding result is given as “no binding”.
